The record followed here is patent publication US20160122417A1.

The assay deals with wild-type human EGFR from A431 cells (human) (UniProt P00533). Briefly: scFv-linked agarose beads incubated with A431 cell lysate; captured EGFR detected with anti-EGFR antibody cocktail, bead fluorescence normalized to the U87-EGFRvIII lysate signal.

“MR1 scFv, azide-functionalized and immobilized on DBCO-functionalized agarose beads” displayed a percent reduction in A431 lysate EGFR binding signal relative to U87-EGFRvIII lysate signal of 85%.
